Here are results for 5 molecules from US20130230533A1 (Regeneron, published 2013).

Numbering of substitutions follows the chain as printed. Names may count otherwise.

T1: Monomeric monkey CD48-mmH (monkey)
T1 construct: Soluble monkey CD48 with a myc-myc-hexa-histidine C-terminal tag; the whole entry is the construct; also called mfCD48-mmH
T1 chain: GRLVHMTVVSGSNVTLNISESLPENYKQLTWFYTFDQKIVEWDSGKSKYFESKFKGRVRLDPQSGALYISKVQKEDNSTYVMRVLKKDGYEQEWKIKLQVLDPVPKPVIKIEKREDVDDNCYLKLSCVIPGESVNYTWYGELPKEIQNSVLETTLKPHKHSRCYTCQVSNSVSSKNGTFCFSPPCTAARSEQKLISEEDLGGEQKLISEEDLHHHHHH

T2: Dimeric monkey CD48-mFc (monkey)
T2 construct: Soluble monkey CD48 with a C-terminal Fc fusion [mFc]; the whole entry is the construct
T2 chain: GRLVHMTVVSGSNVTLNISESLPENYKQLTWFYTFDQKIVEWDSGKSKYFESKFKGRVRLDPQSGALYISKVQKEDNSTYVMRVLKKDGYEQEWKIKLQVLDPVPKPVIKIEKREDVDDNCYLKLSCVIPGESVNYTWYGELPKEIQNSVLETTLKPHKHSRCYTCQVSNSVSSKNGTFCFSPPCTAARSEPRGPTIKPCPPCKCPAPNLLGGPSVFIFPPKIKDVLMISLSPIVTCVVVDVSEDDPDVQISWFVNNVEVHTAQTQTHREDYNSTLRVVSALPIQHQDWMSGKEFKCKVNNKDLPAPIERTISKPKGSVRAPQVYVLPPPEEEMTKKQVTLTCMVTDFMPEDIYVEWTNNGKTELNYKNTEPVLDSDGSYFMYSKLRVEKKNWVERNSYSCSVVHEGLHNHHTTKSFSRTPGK

T3: Dimeric human CD48-mFc (human)
T3 construct: the whole entry is the construct; also called hCD48-mFc
T3 chain: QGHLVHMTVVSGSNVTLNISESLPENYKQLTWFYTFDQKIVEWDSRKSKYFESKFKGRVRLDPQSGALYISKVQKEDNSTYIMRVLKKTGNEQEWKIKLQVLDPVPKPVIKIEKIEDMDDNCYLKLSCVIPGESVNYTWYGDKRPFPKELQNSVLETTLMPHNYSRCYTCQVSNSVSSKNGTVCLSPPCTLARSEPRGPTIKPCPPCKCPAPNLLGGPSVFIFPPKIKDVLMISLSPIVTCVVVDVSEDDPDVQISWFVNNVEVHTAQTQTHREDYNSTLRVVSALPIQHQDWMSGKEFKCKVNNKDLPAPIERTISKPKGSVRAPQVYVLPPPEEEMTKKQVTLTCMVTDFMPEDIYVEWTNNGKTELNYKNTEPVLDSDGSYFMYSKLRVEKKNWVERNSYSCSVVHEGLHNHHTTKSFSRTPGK

T4: Monomeric human CD48-mmH (human)
T4 chain: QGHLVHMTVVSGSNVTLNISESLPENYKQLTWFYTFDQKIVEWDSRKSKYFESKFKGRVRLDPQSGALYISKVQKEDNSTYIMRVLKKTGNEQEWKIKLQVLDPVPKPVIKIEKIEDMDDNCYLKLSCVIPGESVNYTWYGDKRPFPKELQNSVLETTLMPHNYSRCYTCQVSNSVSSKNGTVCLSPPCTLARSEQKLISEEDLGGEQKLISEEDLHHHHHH

B1: H4H1770P (antibody, human IgG4, V domains shown)
VH: QVQLVQSGAEVKKPGAAVKVSCKASGYTFTAYGISWVRQAPGQGLEWMGWISAYDGDTNNAQKFQGRVTMTTDTSSSTAYMELRSLGSDDTAVYYCARDRYSSSSGYFDYWGQGTLVTVSS
VL: DIQMTQSPSSVSASVGDRVTITCRASQDISSWLAWSQQKPGKAPKALIYAASSLQSGVPSRFSGSGSGTDFTLTISSLQPEDFATYYCQQANSFPYTFGQGTKLEIK
notes: Human IgG4 Fc (H4H)
B2: H4H1774P (antibody, human IgG4, V domains shown)
VH: QVQLVESGGGVVQPGRSLRLSCAASGFTFSNYGMHWVRQAPGKGLEWVAVIWYDESSKYYTDSVKGRFTISRDNSQNTLYLQMTSLRAEDTAVYYCARDRWTYSHYFEYWGQGTLVTVSS
VL: B1 VL with D28G, L33V, S36Y, A46L, Y96R, L104V
notes: Human IgG4 Fc (H4H)
B3: H4H1775P (antibody, human IgG4, V domains shown)
VH: B2 VH with S57G, Y59H, T61A
VL: B1 VL with L33V, S36Y, A46L, Y96R, L104V
notes: Human IgG4 Fc (H4H)
B4: H4H1771P (antibody, human IgG4, V domains shown)
VH: QVQLVQSGTEVKKPGASVKVSCKVSGYTLIDLSIHWVRQAPGEGLEWMGGFDPEESETIYAQKFQGRVTMTEDTSTDTAYMELSSLRSEDTAVYYCVTEPIFGILIHESWGQGTLVTVSS
VL: DIVMTQTPLSSPVTLGQPASISCRSSHSPVHSNGHTYLSWLQQRPGQPPRILIYKISRRFSGVPDRFSGSGAGTDFTLKISRVETEDVGIYYCMQASQFPWTFGQGTKVEIK
notes: Human IgG4 Fc (H4H)
B5: H4H1772P (antibody, human IgG4, V domains shown)
VH: EVQLVESGGGLVQPGGSLRLSCAASGFTFSSYWMSWVRQAPGKGLEWVANIMRDGSEKYYVDSVKGRFTISRDNAKNSLYLQMNSLRGEDTAVYYCARERGFYTNYGNWFDPWGQGTLVTVSS
VL: DIVMTQSPLSLTVTPGESASISCRSSQSLLHSYGYNSLDWYLQKPGQSPQFLIYLVSNRASGVPDRFSGSGSGTDFTLKISRVEAEDVGVYYCMQVLQTPYTFGQGTKLEIK
notes: Human IgG4 Fc (H4H)

The first test has as its target T1, Monomeric monkey CD48-mmH. Description: SPR (Biacore), antibody captured by anti-Fc, CD48 in solution, 25 C. The method, then:
(§1) Measurements were conducted on a T100-2 BIACORE™ instrument (Biacore Life Sciences division of GE Healthcare, Piscataway, N.J.). Antibodies (either with mouse Fc [designated “H2M” or “H3M”] or human IgG4 Fc [designated “H4H”]) were captured through an anti-Fc chip surface, and CD48 was flowed over the surface either in a monomeric (soluble CD48 expressed with a myc-myc-hexa-histidine C-terminal tag [mmH]) or dimeric (soluble CD48 expressed with a C-terminal Fc fusion [mFc]) format.
(§2) The soluble CD48 was applied to the flow cell in separate injections at different concentrations, and kinetic association (kₐ) and dissociation (kd) rate constants were determined by fits to the kinetic binding data using Biacore software. Binding dissociation equilibrium constants and dissociation half-times were calculated from the kinetic rate constants as: KD=kd/kₐ; t_{1/2}=(ln 2/kd) (units: ka=M⁻¹*s⁻¹; kd=s⁻¹; KD=M; T½=min) (Tables 3-6).
Background: Surface plasmon resonance follows binding to a sensor surface in real time, without labels.
The term Kd denotes the concentration at which binding is half-saturated. Usually koff stands for the first-order rate constant of dissociation. A word on the kon: it is the second-order rate constant of association. B1 gave a Kd of 0.298 nM, a T½ of 0.9 h, a koff of 0.000215 s⁻¹ and a kon of 720000 M⁻¹ s⁻¹.

Turning to B2, the Kd stood at 0.289 nM, the T½ came out at 2.52 h, the koff was 7.63e-05 s⁻¹ and the kon is 263000 M⁻¹ s⁻¹.

For B3, the equilibrium dissociation constant (Kd) amounted to 0.14 nM, the T½ was determined as 4.73 h, the koff turned out to be 4.07e-05 s⁻¹ and the kon amounted to 291000 M⁻¹ s⁻¹.

Molecule B4 showed a Kd of 0.453 nM, a T½ of 0.4 h, a koff of 0.000477 s⁻¹ and a kon of 1.05e+06 M⁻¹ s⁻¹.

As for B5, binding was characterised by a dissociation constant (Kd) of 1.1 nM, the T½ was 0.383 h, the koff is 0.000508 s⁻¹ and the kon was found to be 461000 M⁻¹ s⁻¹.

The next test has as its target T2, Dimeric monkey CD48-mFc. The test is described as above. The method, then:
as §1, §2
Regarding B1, binding was characterised by a dissociation constant (Kd) of 0.131 nM, the T½ was determined as 1.72 h, the koff amounted to 0.000113 s⁻¹ and the kon came to 858000 M⁻¹ s⁻¹.

B2 showed a Kd of 0.0525 nM, a T½ of 9.3 h, a koff of 2.07e-05 s⁻¹ and a kon of 395000 M⁻¹ s⁻¹.

Turning to B3, the Kd was 0.0135 nM, the T½ is 29.2 h, the koff came to 6.6e-06 s⁻¹ and the kon worked out at 488000 M⁻¹ s⁻¹.

B4: binding was characterised by a dissociation constant (Kd) of 0.0587 nM, the T½ is 3.5 h, the koff worked out at 5.51e-05 s⁻¹ and the kon stood at 939000 M⁻¹ s⁻¹.

As to B5, binding was put at a Kd of 0.0968 nM, the T½ was determined as 3.83 h, the koff worked out at 5.02e-05 s⁻¹ and the kon was determined as 519000 M⁻¹ s⁻¹.

For the next test, the target named is T1, Monomeric monkey CD48-mmH. Description: SPR (Biacore), antibody captured by anti-Fc, CD48 in solution, 37 C. Here is the method:
as §1, §2
Regarding B1, the dissociation constant (Kd) worked out at 0.44 nM, the T½ amounted to 1.1 h, the koff turned out to be 0.000174 s⁻¹ and the kon worked out at 396000 M⁻¹ s⁻¹.

Consider B2, for which binding was put at a Kd of 1.36 nM, the T½ worked out at 0.717 h, the koff amounted to 0.000267 s⁻¹ and the kon was 197000 M⁻¹ s⁻¹.

Turning to B3, binding was characterised by a dissociation constant (Kd) of 0.498 nM, the T½ amounted to 1.5 h, the koff stood at 0.000129 s⁻¹ and the kon amounted to 260000 M⁻¹ s⁻¹.

Turning to B4, the Kd amounted to 1.34 nM, the T½ stood at 0.217 h, the koff amounted to 0.000877 s⁻¹ and the kon came out at 657000 M⁻¹ s⁻¹.

As to B5, the Kd is 4.53 nM, the T½ is 0.133 h, the koff amounted to 0.00145 s⁻¹ and the kon is 320000 M⁻¹ s⁻¹.

The next test addresses T3, Dimeric human CD48-mFc. The description is as above. Here is the method:
as §1, §2
On to B1, for which the affinity, expressed as Kd, was 0.0138 nM; the T½ is 6.25 h; the koff came to 3.08e-05 s⁻¹; the association rate constant (kon) is 2.23e+06 M⁻¹ s⁻¹.

In turn, B2 displayed a Kd of 0.0439 nM, a T½ of 12.1 h, a koff of 1.6e-05 s⁻¹ and a kon of 363000 M⁻¹ s⁻¹.

B3 yielded a Kd of 0.0434 nM, a T½ of 8.48 h, a koff of 2.27e-05 s⁻¹ and a kon of 522000 M⁻¹ s⁻¹.

Molecule B4 came in with a Kd of 0.0166 nM, a T½ of 4 h, a koff of 4.81e-05 s⁻¹ and a kon of 2.89e+06 M⁻¹ s⁻¹.

Regarding B5, the Kd is 0.065 nM, the T½ was 3.22 h, the koff stood at 5.98e-05 s⁻¹ and the kon came out at 920000 M⁻¹ s⁻¹.

The target of a further test is T2, Dimeric monkey CD48-mFc. Described as above. The method, then:
as §1, §2
B1: the Kd was 0.0911 nM, the T½ was found to be 1.38 h, the koff is 0.000139 s⁻¹ and the kon was determined as 1.53e+06 M⁻¹ s⁻¹.

Turning to B2, the Kd was 0.107 nM, the T½ came out at 3.57 h, the koff turned out to be 5.4e-05 s⁻¹ and the kon was determined as 508000 M⁻¹ s⁻¹.

B3 returned a Kd of 0.0593 nM, a T½ of 4.85 h, a koff of 3.97e-05 s⁻¹ and a kon of 669000 M⁻¹ s⁻¹.

The molecule B4 registered a Kd of 0.0621 nM, a T½ of 1.88 h, a koff of 0.000102 s⁻¹ and a kon of 1.64e+06 M⁻¹ s⁻¹.

In the case of B5, the Kd amounted to 0.0947 nM, the T½ is 2.63 h, the koff is 7.31e-05 s⁻¹ and the kon came to 772000 M⁻¹ s⁻¹.

The target of the next test is T4, Monomeric human CD48-mmH. Described as above. The method, then:
as §1, §2
In the case of B1, the dissociation constant (Kd) was 0.662 nM, the T½ came out at 0.367 h, the koff amounted to 0.000533 s⁻¹ and the kon was 804000 M⁻¹ s⁻¹.

In turn, B2 registered a Kd of 0.824 nM, a T½ of 1.8 h, a koff of 0.000107 s⁻¹ and a kon of 130000 M⁻¹ s⁻¹.

B3 gave a Kd of 0.536 nM, a T½ of 2.03 h, a koff of 9.48e-05 s⁻¹ and a kon of 177000 M⁻¹ s⁻¹.

B4: the dissociation constant (Kd) was determined as 0.488 nM, the T½ is 0.35 h, the koff came to 0.000547 s⁻¹ and the kon stood at 1.12e+06 M⁻¹ s⁻¹.

Molecule B5 yielded a Kd of 5.94 nM, a T½ of 0.183 h, a koff of 0.00102 s⁻¹ and a kon of 172000 M⁻¹ s⁻¹.
